Results: article PMC4072347 (Biochemistry, 2014)

Biological target: human methemoglobin (metHb) (human, UniProt P69905;P68871)
Experiment: SEC

Chain of human methemoglobin (metHb) (P69905 whole entry, chain 1 of 2): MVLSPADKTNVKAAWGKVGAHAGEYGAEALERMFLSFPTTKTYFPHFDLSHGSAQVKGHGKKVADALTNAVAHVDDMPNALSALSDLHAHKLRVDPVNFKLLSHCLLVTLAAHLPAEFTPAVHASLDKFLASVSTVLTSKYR
Chain of human methemoglobin (metHb) (P68871 whole entry, chain 2 of 2): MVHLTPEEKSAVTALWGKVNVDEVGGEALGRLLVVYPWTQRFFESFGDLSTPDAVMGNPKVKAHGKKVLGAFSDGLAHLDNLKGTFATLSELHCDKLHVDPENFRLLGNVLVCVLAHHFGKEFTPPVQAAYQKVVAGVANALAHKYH

B1: IsdH NEAT1 (IsdH^N1), residues Ala86-Leu229 (domain or fragment)
chain: ADESLKDAIKDPALENKEHDIGPREQVNFQLLDKNNETQYYHFFSIKDPADVYYTKKKAEVELDINTASTWKKFEVYENNQKLPVRLVSYSPVPEDHAYIRFPVSDGTQELKIVSSTQIDDGEETNYDYTKLVFAKPIYNDPSL
  stoichiometry N: 1 IsdH NEAT domain per metHb (alpha/beta dimer)

B2: IsdB^N1-L, IsdB residues Leu125-Asn339 (NEAT 1 domain with the linker) (domain or fragment)
chain: LNQELREAIKNPAIKDKDHSAPNSRPIDFEMKKKDGTQQFYHYASSVKPARVIFTDSKPEIELGLQSGQFWRKFEVYEGDKKLPIKLVSYDTVKDYAYIRFSVSNGTKAVKIVSSTHFNNKEEKYDYTLMEFAQPIYNSADKFKTEEDYKAEKLLAPYKKAKTLERQVYELNKIQDKLPEKLKAEYKKKLEDTKKALDEQVKSAITEFQNVQPTN
  stoichiometry N: < 1 IsdB^N1-L per metHb

B3: IsdH NEAT2 (IsdH^N2), residues Gln321-Asn464 (domain or fragment)
chain: QQYPPADESLQDAIKNPAIIDKEHTADNWRPIDFQMKNDKGERQFYHYASTVEPATVIFTKTGPIIELGLKTASTWKKFEVYEGDKKLPVELVSYDSDKDYAYIRFPVSNGTREVKIVSSIEYGENIHEDYDYTLMVFAQPITN
  stoichiometry N: 1 IsdH NEAT domain per metHb (alpha/beta dimer)
